Source: PMC2133122
“And” between values parts separate entries of the source, which are not always exact repeats. Identical values can stand only once.

Assays:
[1] = molecular target: mitochondrial Hsp70 (mtHsp70, Ssc1p), wild type (S. cerevisiae (endogenous in yeast mitochondria)) (UniProt P0CS90); experiment: co-IP
[2] = molecular target: mutant mtHsp70 encoded by the allele ssc1-2 (Ssc1-2p) (S. cerevisiae (endogenous in yeast mitochondria)) (UniProt P0CS90); experiment: co-IP

fold reduction of complex formation with mtHsp70 against authentic Tim44 [1]	percent reduction of complex formation with mtHsp70 against authentic Tim44 [1]	fold efficiency of binding against wild-type mtHsp70 [2]	Substance
3 fold and 4 fold	70%		Tim44Δ18 (Tim44 with a deletion of residues 185–202) (natural protein)
		> 4 fold	Su9-DHFR, imported into mitochondria (from UniProt P00375 1-187)
